# Test results reported in patent US20110229521A1, “NUTRITIONAL SUPPORT OF THE IMMUNE SYSTEM DURING ANTI-CANCER TREATMENT” (priority 2008, published 2011).
# B1: lactoferrin: diet with 25 mg/day of lactoferrin (protein, UniProt P24627 20-708, looked up)
# Lactotransferrin: APRKNVRWCTISQPEWFKCRRWQWRMKKLGAPSITCVRRAFALECIRAIAEKKADAVTLDGGMVFEAGRDPYKLRPVAAEIYGTKESPQTHYYAVAVVKKGSNFQLDQLQGRKSCHTGLGRSAGWIIPMGILRPYLSWTESLEPLQGAVAKFFSASCVPCIDRQAYPNLCQLCKGEGENQCACSSREPYFGYSGAFKCLQDGAGDVAFVKETTVFENLPEKADRDQYELLCLNNSRAPVDAFKECHLAQVPSHAVVARSVDGKEDLIWKLLSKAQEKFGKNKSRSFQLFGSPPGQRDLLFKDSALGFLRIPSKVDSALYLGSRYLTTLKNLRETAEEVKARYTRVVWCAVGPEEQKKCQQWSQQSGQNVTCATASTTDDCIVLVLKGEADALNLDGGYIYTAGKCGLVPVLAENRKSSKHSSLDCVLRPTEGYLAVAVVKKANEGLTWNSLKDKKSCHTAVDRTAGWNIPMGLIVNQTGSCAFDEFFSQSCAPGADPKSRLCALCAGDDQGLDKCVPNSKEKYYGYTGAFRCLAEDVGDVAFVKNDTVWENTNGESTADWAKNLNREDFRLLCLDGTRKPVTEAQSCHLAVAPNHAVVSRSDRAAHVKQVLLHQQALFGKNGKNCPDKFCLFKSETKNLLFNDNTECLAKLGGRPTYEEYLGTEYVTAIANLKKCSTSPLLEACAFLTR
# Test: Body weight, haematological evaluation and flow cytometry of tumor-bearing mice on supplemented diets with chemotherapy (Example 2)
# Type: in vivo, C57BL/6 (H-2b) mice
# Procedure: Mice. […] The animals were distributed into 7 different group diets. There was a control group that received the diet AIN 93 for adult rodents (maintenance). […] Control animals without chemotherapeutic treatment were run in parallel for all tested diets. Body weight was assessed every two days. Blood samples were obtained at day 2, 4 and 10 after the chemo-treatment and at sacrifice (14 or 28 days). An autopsy was performed and tumor mass was assessed.
# Haematological evaluation.
# Flow cytometric analysis.
molecule,measurement,setting,value
B1,toxicity (bone marrow),"chemotherapy treated group compared to the control, FIG. 11",less toxicity
same,Global lymphocyte population,"following chemotherapy, supplemented diet",less depressed following chemotherapy
same,leukocytic increase,"oxaliplatin treated animals, supplemented diet",tended to be higher
same,immune cell population / concentration,second phase (tumor-induced toxicity),increase in their immune cell population
